Results published in IntAct's records for PubMed 27725184.

B1: STAM-binding protein (Homo sapiens), O95630 (parent)
chain: MSDHGDVSLPPEDRVRALSQLGSAVEVNEDIPPRRYFRSGVEIIRMASIYSEEGNIEHAFILYNKYITLFIEKLPKHRDYKSAVIPEKKDTVKKLKEIAFPKAEELKAELLKRYTKEYTEYNEEKKKEAEELARNMAIQQELEKEKQRVAQQKQQQLEQEQFHAFEEMIRNQELEKERLKIVQEFGKVDPGLGGPLVPDLEKPSLDVFPTLTVSSIQPSDCHTTVRPAKPPVVDRSLKPGALSNSESIPTIDGLRHVVVPGRLCPQFLQLASANTARGVETCGILCGKLMRNEFTITHVLIPKQSAGSDYCNTENEEELFLIQDQQGLITLGWIHTHPTQTAFLSSVDLHTHCSYQMMLPESVAIVCSPKFQETGFFKLTDHGLEEISSCRQKGFHPHSKDPPLFCSCSHVTVVDRAVTITDLR

Variants of: B1
Details: with stam2_human STAM2, O75886

effect of a mutation on the interaction	Variant
decreasing interaction	MSDHGDVSLPPEDRVRALSQLGSAVEVNEDIPPRRYFRSGVEIIRMASIYSEEGNIEHAFILYNKYITLFIEKLPKHRDYKSAVIPEKKDTVKKLKEIAFPKAEELKAELLKRYTKEYTEYNEEKKKEAEELARNMAIQQELEKEKQRVAQQKQQQLEQEQFHAFEEMIRNQELEKERLKIVQEFGKVDPGLGGPLVPDLEKPSLDVFPTLTVSSIQPSDCHTTVRPAKPPVVDRSLTPGALSNSESIPTIDGLRHVVVPGRLCPQFLQLASANTARGVETCGILCGKLMRNEFTITHVLIPKQSAGSDYCNTENEEELFLIQDQQGLITLGWIHTHPTQTAFLSSVDLHTHCSYQMMLPESVAIVCSPKFQETGFFKLTDHGLEEISSCRQKGFHPHSKDPPLFCSCSHVTVVDRAVTITDLR [K238T]
with no effect	MSDHGDVSLPPEDRVRALSQLGSAVEVNEDIPPRRYFRSGVEIIRMASIYSEEGNIEHAFILYNKYITLFIEKLPKHRDYKSAVIPEKKDTVKKLKEIAFPKAEELKAELLKRYTKEYTEYNEEKKKEAEELARNMAIQQELEKEKQRVAQQKQQQLEQEQFHAFEEMIRNQELEKERLKIVQEFGKVDPGLGGPLVPDLEKPSLDVFPTLTVSSIQPSDCHTTVRPAHPPVVDRSLKPGALSNSESIPTIDGLRHVVVPGRLCPQFLQLASANTARGVETCGILCGKLMRNEFTITHVLIPKQSAGSDYCNTENEEELFLIQDQQGLITLGWIHTHPTQTAFLSSVDLHTHCSYQMMLPESVAIVCSPKFQETGFFKLTDHGLEEISSCRQKGFHPHSKDPPLFCSCSHVTVVDRAVTITDLR [K229H]
